Consider 79 substances from the Human Domainome abundance scans (Beltran et al. 2025).

± gives the uncertainty stated by the source.

A short description of this data set: abundance fitness (aPCA) (normalised: wild type 0, dead -1); higher = more abundant; growth selection in yeast, the domain comes from the species named. Particulars: Homo sapiens.
In turn, “NEDD4-like E3 ubiquitin-protein ligase WWP2 D492Q, O00308” returned an abundance fitness of -0.043 ± 0.088. Consider “NEDD4-like E3 ubiquitin-protein ligase WWP2 D492R, O00308”, for which the abundance fitness is -0.223 ± 0.051. The result for “NEDD4-like E3 ubiquitin-protein ligase WWP2 D492S, O00308” reads -0.071 ± 0.053; that for “NEDD4-like E3 ubiquitin-protein ligase WWP2 D492T, O00308”, -0.085 ± 0.073; that for “NEDD4-like E3 ubiquitin-protein ligase WWP2 D492V, O00308”, -0.143 ± 0.049. For “NEDD4-like E3 ubiquitin-protein ligase WWP2 D492W, O00308” the value was -0.319 ± 0.033. For “NEDD4-like E3 ubiquitin-protein ligase WWP2 D492Y, O00308” the value was -0.189 ± 0.033; for “NEDD4-like E3 ubiquitin-protein ligase WWP2 E443A, O00308”, -0.065 ± 0.032. “NEDD4-like E3 ubiquitin-protein ligase WWP2 E443C, O00308” came in with an abundance fitness of 0.004 ± 0.076.

“NEDD4-like E3 ubiquitin-protein ligase WWP2 E443D, O00308” showed an abundance fitness of -0.06 ± 0.075. For “NEDD4-like E3 ubiquitin-protein ligase WWP2 E443F, O00308” the value was -0.287 ± 0.088. The result for “NEDD4-like E3 ubiquitin-protein ligase WWP2 E443G, O00308” reads -0.091 ± 0.038. The result for “NEDD4-like E3 ubiquitin-protein ligase WWP2 E443H, O00308” reads -0.082 ± 0.044; that for “NEDD4-like E3 ubiquitin-protein ligase WWP2 E443I, O00308”, -0.093 ± 0.073; that for “NEDD4-like E3 ubiquitin-protein ligase WWP2 E443K, O00308”, -0.062 ± 0.073.

“NEDD4-like E3 ubiquitin-protein ligase WWP2 E443L, O00308” showed an abundance fitness of -0.183 ± 0.055. With “NEDD4-like E3 ubiquitin-protein ligase WWP2 E443M, O00308”, the abundance fitness is -0.14 ± 0.055. The result for “NEDD4-like E3 ubiquitin-protein ligase WWP2 E443N, O00308” reads -0.019 ± 0.08; that for “NEDD4-like E3 ubiquitin-protein ligase WWP2 E443P, O00308”, -0.065 ± 0.064. The result for “NEDD4-like E3 ubiquitin-protein ligase WWP2 E443Q, O00308” reads -0.205 ± 0.076. For “NEDD4-like E3 ubiquitin-protein ligase WWP2 E443R, O00308” the value was -0.174 ± 0.042; for “NEDD4-like E3 ubiquitin-protein ligase WWP2 E443T, O00308”, -0.248 ± 0.085. Take “NEDD4-like E3 ubiquitin-protein ligase WWP2 E443V, O00308”: the abundance fitness is -0.087 ± 0.036.

Take “NEDD4-like E3 ubiquitin-protein ligase WWP2 E443W, O00308”: the abundance fitness is -0.185 ± 0.039. For “NEDD4-like E3 ubiquitin-protein ligase WWP2 E443Y, O00308” the value was 0.006 ± 0.058. As for “NEDD4-like E3 ubiquitin-protein ligase WWP2 E451A, O00308”, the abundance fitness was -0.153 ± 0.056. As for “NEDD4-like E3 ubiquitin-protein ligase WWP2 E451C, O00308”, the abundance fitness is -0.227 ± 0.063. “NEDD4-like E3 ubiquitin-protein ligase WWP2 E451F, O00308” gave an abundance fitness of -0.572 ± 0.083. With “NEDD4-like E3 ubiquitin-protein ligase WWP2 E451G, O00308”, the abundance fitness is -0.287 ± 0.037. For “NEDD4-like E3 ubiquitin-protein ligase WWP2 E451H, O00308” the value was -0.54 ± 0.089. In the case of “NEDD4-like E3 ubiquitin-protein ligase WWP2 E451I, O00308”, the abundance fitness was -0.503 ± 0.091. “NEDD4-like E3 ubiquitin-protein ligase WWP2 E451K, O00308” showed an abundance fitness of -0.472 ± 0.076. The result for “NEDD4-like E3 ubiquitin-protein ligase WWP2 E451L, O00308” reads -0.415 ± 0.053; that for “NEDD4-like E3 ubiquitin-protein ligase WWP2 E451M, O00308”, -0.122 ± 0.056.

Consider “NEDD4-like E3 ubiquitin-protein ligase WWP2 E451N, O00308”, for which the abundance fitness was -0.342 ± 0.065. For “NEDD4-like E3 ubiquitin-protein ligase WWP2 E451P, O00308” the value was -1.34 ± 0.3; for “NEDD4-like E3 ubiquitin-protein ligase WWP2 E451Q, O00308”, 0.066 ± 0.07; for “NEDD4-like E3 ubiquitin-protein ligase WWP2 E451S, O00308”, -0.072 ± 0.032. The result for “NEDD4-like E3 ubiquitin-protein ligase WWP2 E451T, O00308” reads -0.229 ± 0.045; that for “NEDD4-like E3 ubiquitin-protein ligase WWP2 E451V, O00308”, -0.113 ± 0.031; that for “NEDD4-like E3 ubiquitin-protein ligase WWP2 E451W, O00308”, -1.18 ± 0.18.

As for “NEDD4-like E3 ubiquitin-protein ligase WWP2 E451Y, O00308”, the abundance fitness is -0.378 ± 0.071. For “NEDD4-like E3 ubiquitin-protein ligase WWP2 E457A, O00308” the value was -0.081 ± 0.044. For “NEDD4-like E3 ubiquitin-protein ligase WWP2 E457C, O00308” the value was -0.155 ± 0.073. The result for “NEDD4-like E3 ubiquitin-protein ligase WWP2 E457D, O00308” reads -0.068 ± 0.062. “NEDD4-like E3 ubiquitin-protein ligase WWP2 E457F, O00308” gave an abundance fitness of -0.253 ± 0.074. The result for “NEDD4-like E3 ubiquitin-protein ligase WWP2 E457G, O00308” reads -0.116 ± 0.037; that for “NEDD4-like E3 ubiquitin-protein ligase WWP2 E457H, O00308”, -0.089 ± 0.035; that for “NEDD4-like E3 ubiquitin-protein ligase WWP2 E457I, O00308”, -0.285 ± 0.042. The result for “NEDD4-like E3 ubiquitin-protein ligase WWP2 E457K, O00308” reads -0.118 ± 0.056; that for “NEDD4-like E3 ubiquitin-protein ligase WWP2 E457L, O00308”, -0.204 ± 0.056; that for “NEDD4-like E3 ubiquitin-protein ligase WWP2 E457M, O00308”, -0.349 ± 0.071. For “NEDD4-like E3 ubiquitin-protein ligase WWP2 E457N, O00308” the value was -0.189 ± 0.068; for “NEDD4-like E3 ubiquitin-protein ligase WWP2 E457P, O00308”, -0.5 ± 0.075. “NEDD4-like E3 ubiquitin-protein ligase WWP2 E457Q, O00308”: the abundance fitness is -0.022 ± 0.056. The result for “NEDD4-like E3 ubiquitin-protein ligase WWP2 E457R, O00308” reads -0.251 ± 0.061; that for “NEDD4-like E3 ubiquitin-protein ligase WWP2 E457S, O00308”, -0.201 ± 0.061. In the case of “NEDD4-like E3 ubiquitin-protein ligase WWP2 E457T, O00308”, the abundance fitness is -0.081 ± 0.067. In the case of “NEDD4-like E3 ubiquitin-protein ligase WWP2 E457V, O00308”, the abundance fitness is -0.188 ± 0.031.

In turn, “NEDD4-like E3 ubiquitin-protein ligase WWP2 E457W, O00308” registered an abundance fitness of -0.624 ± 0.096. The result for “NEDD4-like E3 ubiquitin-protein ligase WWP2 E457Y, O00308” reads -0.216 ± 0.057.

For “NEDD4-like E3 ubiquitin-protein ligase WWP2 E480A, O00308”, the abundance fitness was -0.08 ± 0.034. The result for “NEDD4-like E3 ubiquitin-protein ligase WWP2 E480C, O00308” reads -0.611 ± 0.043. The result for “NEDD4-like E3 ubiquitin-protein ligase WWP2 E480D, O00308” reads 0.015 ± 0.06.

Turning to “NEDD4-like E3 ubiquitin-protein ligase WWP2 E480F, O00308”, the abundance fitness was -0.239 ± 0.062.

As for “NEDD4-like E3 ubiquitin-protein ligase WWP2 E480G, O00308”, the abundance fitness is -0.038 ± 0.033.

“NEDD4-like E3 ubiquitin-protein ligase WWP2 E480H, O00308” gave an abundance fitness of 0.027 ± 0.068.

In turn, “NEDD4-like E3 ubiquitin-protein ligase WWP2 E480I, O00308” registered an abundance fitness of -0.042 ± 0.047. The result for “NEDD4-like E3 ubiquitin-protein ligase WWP2 E480K, O00308” reads -0.019 ± 0.05; that for “NEDD4-like E3 ubiquitin-protein ligase WWP2 E480L, O00308”, -0.072 ± 0.042.

On to “NEDD4-like E3 ubiquitin-protein ligase WWP2 E480M, O00308”, for which the abundance fitness is -0.058 ± 0.048. “NEDD4-like E3 ubiquitin-protein ligase WWP2 E480N, O00308” came in with an abundance fitness of -0.126 ± 0.068. For “NEDD4-like E3 ubiquitin-protein ligase WWP2 E480P, O00308” the value was -0.141 ± 0.062; for “NEDD4-like E3 ubiquitin-protein ligase WWP2 E480Q, O00308”, -0.053 ± 0.04. For “NEDD4-like E3 ubiquitin-protein ligase WWP2 E480R, O00308” the value was -0.078 ± 0.038. For “NEDD4-like E3 ubiquitin-protein ligase WWP2 E480S, O00308” the value was -0.15 ± 0.053; for “NEDD4-like E3 ubiquitin-protein ligase WWP2 E480T, O00308”, -0.119 ± 0.062. “NEDD4-like E3 ubiquitin-protein ligase WWP2 E480V, O00308” had an abundance fitness of -0.064 ± 0.035.

Consider “NEDD4-like E3 ubiquitin-protein ligase WWP2 E480Y, O00308”, for which the abundance fitness amounted to 0.036 ± 0.065.
